The results in this text go back to the supplement of paper PMC7877785.

A short description of the data set: self-splicing fitness, log relative to wild type (ln ratio); higher = more splicing; Tetrahymena group I intron in knt gene, E. coli kanamycin selection, DiMSum; sequences stand for … in CUCUCU…GGAGGGAAAAGUUAUCAGGCAUGCACCUGGUAGCUAGUCUUUAAACCAAUAGAUUGCAUCGGUUUAAAAGGCAAGACCGUCAAAUUGCGGGAAAGGGGUCAACAGCCGUUCAGUACCAAGUCUCAGGGGAAACUUUGAGAUGGCCUUGCAAAGGGUAUGGUAAUAAGCUGACGGACAUGGUCCUAACCACGCAGCCAAGUCCUAAGUCAACAGAUCUUCUGUUGAUAUGGAUGCAGUUCACAGACUAAAUGUCGGUCGGGGAAGAUGUAUUCUUCUCAUAAGAUAUAGUCGGACCUCUCCUUAAUGGGAGCUAGCGGAUGAAGUGAUGCAACACUGGAGCCGCUGGGAACUAAUUUGUAUGCGAAAGUAUAUUGAUUAGUUUUGGAGUACUCGUGGUCG
Put shortly:
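The eight P1ex-region nucleotides of an intron in the knt kanamycin-resistance gene on pET-22b(+) were all randomised and the library put into E. coli BL21(DE3). Six replicate transformations were grown overnight at 37°C or 30°C on LB agar with or without 25 μg/mL kanamycin, together with 100 μg/mL carbenicillin, 50 μM IPTG and 0.2% rhamnose. Colonies were pooled and amplicon-sequenced on an Illumina HiSeq 2500. Fitness from DiMSum is the error-weighted combination of wild-type-normalised replicate fold changes, kanamycin over none.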

± gives the uncertainty stated by the source.

As to AGCAAGCAAUAUUACGCCAA, the “self-splicing fitness (ln)” value (30 °C) was -2.89 ± 0.2 and the “self-splicing fitness (ln)” value (37 °C) was -1.97 ± 0.14. In the case of UCGGAGCAAUAUUACGGCUG, the “self-splicing fitness (ln)” value was -2.33 ± 0.18 (30 °C) and -1.5 ± 0.19 (37 °C). The corresponding values for CCUUAGCAAUAUUACGGUAG are -4.09 ± 0.28 and -2.1 ± 0.23.

As for CUACAGCAAUAUUACGUUCU, the “self-splicing fitness (ln)” value runs as follows: (30 °C) -2.56 ± 0.12; (37 °C) -2.42 ± 0.2. For GCGCAGCAAUAUUACGCUAU, in that order: -0.914 ± 0.096 and -0.406 ± 0.12. As to UCGGAGCAAUAUUACGUUCA, the “self-splicing fitness (ln)” value (37 °C) was -2.2 ± 0.47. As for AUCAAGCAAUAUUACGUGGU, the “self-splicing fitness (ln)” value was -2.83 ± 0.2 (30 °C) and -3.11 ± 0.21 (37 °C). For ACUGAGCAAUAUUACGCUUU, in that order: -2.53 ± 0.21 and -1.37 ± 0.18. The corresponding values for UCCUAGCAAUAUUACGAGGC are -2.31 ± 0.13 and -3.06 ± 0.26. For GACAAGCAAUAUUACGGGGG, in that order: -3.58 ± 0.15 and -3.18 ± 0.2. With CCUUAGCAAUAUUACGUCUU, the “self-splicing fitness (ln)” value was -3.66 ± 0.16 (30 °C) and -2.61 ± 0.17 (37 °C). With UAUGAGCAAUAUUACGCCGA, the “self-splicing fitness (ln)” value (30 °C) is -2.04 ± 0.34 and the “self-splicing fitness (ln)” value (37 °C) was -1.73 ± 0.26. The corresponding values for GUUGAGCAAUAUUACGCGUC are -1.59 ± 0.27 and -0.951 ± 0.34. The corresponding values for GGCGAGCAAUAUUACGUGAA are -2.49 ± 0.12 and -0.0823 ± 0.13. The corresponding values for UAGGAGCAAUAUUACGUUCG are -0.918 ± 0.2 and -0.576 ± 0.19. As for ACUUAGCAAUAUUACGUGGC, the “self-splicing fitness (ln)” value is -2.83 ± 0.16 (30 °C) and -2.85 ± 0.29 (37 °C).

Regarding AGUUAGCAAUAUUACGGGCG, the “self-splicing fitness (ln)” value (30 °C) is -0.303 ± 0.16 and the “self-splicing fitness (ln)” value (37 °C) was -0.0474 ± 0.17.

As to GCGAAGCAAUAUUACGCCUU, the “self-splicing fitness (ln)” value (37 °C) was -1.5 ± 0.26.

For CCCCAGCAAUAUUACGUAUG, the “self-splicing fitness (ln)” value (30 °C) is -3.71 ± 0.15 and the “self-splicing fitness (ln)” value (37 °C) is -1.96 ± 0.13. The corresponding values for AUACAGCAAUAUUACGGAGU are -1.72 ± 0.085 and -1.72 ± 0.11. On to UAACAGCAAUAUUACGGAUU, for which the “self-splicing fitness (ln)” value is, setting by setting: (30 °C) -3.02 ± 0.12; (37 °C) -0.666 ± 0.094. For UUCUAGCAAUAUUACGCUCG, in that order: -2.13 ± 0.26 and -2.09 ± 0.49.

As to AGGCAGCAAUAUUACGGAUA, the “self-splicing fitness (ln)” value by setting is: (30 °C) -1.85 ± 0.22; (37 °C) -2.11 ± 0.22. For CUACAGCAAUAUUACGUAAA, in that order: -3.13 ± 0.16 and -1.92 ± 0.17. The corresponding values for CGACAGCAAUAUUACGAACG are -0.656 ± 0.11 and -0.117 ± 0.16. For GCUAAGCAAUAUUACGCCUU, the “self-splicing fitness (ln)” value reads like this: (30 °C) -1.43 ± 0.11; (37 °C) -0.0502 ± 0.14. The corresponding values for UCAAAGCAAUAUUACGGGGU are -3.42 ± 0.17 and -3.33 ± 0.26. In the case of ACUGAGCAAUAUUACGGGGU, the “self-splicing fitness (ln)” value is -2.72 ± 0.14 (30 °C) and -3.13 ± 0.28 (37 °C).

For the sequence UGGUAGCAAUAUUACGUCUA, the “self-splicing fitness (ln)” value is, setting by setting: (30 °C) -0.44 ± 0.096; (37 °C) 0.358 ± 0.12. The corresponding values for ACCUAGCAAUAUUACGAGUC are -2.53 ± 0.3 and -2.78 ± 0.48.

Regarding UCCAAGCAAUAUUACGGCCA, the “self-splicing fitness (ln)” value is -0.223 ± 0.11 (30 °C) and 0.127 ± 0.11 (37 °C). The corresponding values for UCCCAGCAAUAUUACGGCCG are -3.44 ± 0.27 and -2.02 ± 0.32. For AGUUAGCAAUAUUACGAUAU, in that order: -1.55 ± 0.16 and -0.311 ± 0.19. As for UCGGAGCAAUAUUACGGAAU, the “self-splicing fitness (ln)” value (37 °C) is -2.38 ± 0.42. As for CCAUAGCAAUAUUACGGAUG, the “self-splicing fitness (ln)” value runs as follows: (30 °C) -2.42 ± 0.11; (37 °C) -1.43 ± 0.11. The corresponding values for CUACAGCAAUAUUACGGUUA are -0.432 ± 0.092 and 0.11 ± 0.1.

As for GGCCAGCAAUAUUACGCACU, the “self-splicing fitness (ln)” value (30 °C) was -0.947 ± 0.13 and the “self-splicing fitness (ln)” value (37 °C) stood at 0.319 ± 0.16.

Turning to ACCAAGCAAUAUUACGUACG, the “self-splicing fitness (ln)” value (30 °C) was -2.52 ± 0.083 and the “self-splicing fitness (ln)” value (37 °C) was -1.28 ± 0.092. The corresponding values for GCGUAGCAAUAUUACGAAAU are -2.16 ± 0.29 and -0.358 ± 0.24.

For GUGAAGCAAUAUUACGGGAG, the “self-splicing fitness (ln)” value runs as follows: (30 °C) -2.09 ± 0.1; (37 °C) -0.567 ± 0.094. The corresponding values for CCGCAGCAAUAUUACGUCCA are -2.28 ± 0.27 and 0.175 ± 0.2. For UGCAAGCAAUAUUACGUGGG, the “self-splicing fitness (ln)” value is -3.73 ± 0.17 (30 °C) and -2.93 ± 0.19 (37 °C). Turning to UCCGAGCAAUAUUACGGCCU, the “self-splicing fitness (ln)” value reads like this: (30 °C) -3.24 ± 0.3; (37 °C) -2.33 ± 0.38. For AUCUAGCAAUAUUACGGCAU, in that order: 0.455 ± 0.096 and 0.24 ± 0.1.

On to GACUAGCAAUAUUACGAGAA, for which the “self-splicing fitness (ln)” value was -1.29 ± 0.27 (30 °C) and -1.53 ± 0.17 (37 °C). GCGUAGCAAUAUUACGUGGA: the “self-splicing fitness (ln)” value was -3.68 ± 0.48 (30 °C) and -2.23 ± 0.38 (37 °C). For UAGUAGCAAUAUUACGAUCG, in that order: -0.771 ± 0.095 and 0.251 ± 0.12. For CAGUAGCAAUAUUACGGAGU, in that order: -3.34 ± 0.36 and -2.67 ± 0.26.

Regarding GUAUAGCAAUAUUACGUCAU, the “self-splicing fitness (ln)” value by setting is: (30 °C) -2.03 ± 0.17; (37 °C) -0.747 ± 0.17. The corresponding values for UAGAAGCAAUAUUACGACUA are -0.222 ± 0.11 and 0.71 ± 0.14. For GGUCAGCAAUAUUACGAUAC, in that order: -1.32 ± 0.16 and -1.59 ± 0.19. As to UUAUAGCAAUAUUACGUCGA, the “self-splicing fitness (ln)” value (30 °C) was -0.277 ± 0.13 and the “self-splicing fitness (ln)” value (37 °C) was -0.308 ± 0.15. The corresponding values for CAGAAGCAAUAUUACGGUUA are -2.25 ± 0.13 and -1.72 ± 0.12. For AGGUAGCAAUAUUACGGGCG, in that order: -1.03 ± 0.015 and -0.573 ± 0.034.

Regarding AUGGAGCAAUAUUACGGUGG, the “self-splicing fitness (ln)” value by setting is: (30 °C) -4.09 ± 0.3; (37 °C) -2.17 ± 0.27. The corresponding values for GCAGAGCAAUAUUACGUGUU are -4.35 ± 0.3 and -2.42 ± 0.18. Regarding CAACAGCAAUAUUACGUCUG, the “self-splicing fitness (ln)” value is, setting by setting: (30 °C) -1.89 ± 0.062; (37 °C) -1.38 ± 0.063. For CAAGAGCAAUAUUACGGGAU, in that order: -2.97 ± 0.17 and -2.59 ± 0.31. For UUACAGCAAUAUUACGGGUC, in that order: -3.67 ± 0.19 and -2.51 ± 0.15. As to ACGGAGCAAUAUUACGCUCU, the “self-splicing fitness (ln)” value is, setting by setting: (30 °C) -3.26 ± 0.32; (37 °C) -1.22 ± 0.3.
